Data reported in US20230295310A1 (ABCELLERA BIOLOGICS, published 2023).
Numbering of substitutions follows the chain as printed.

B1: mAb 176 (antibody, V domains shown)
VH: EVELVESGGGLVQPGRSLRLSCAASGFKFDDYTMHWVRLPPGKGLEWVSGISWNSGTIDYGDSVKGRFTISRDNAKNSLYLQMNSLRVEDTALYYCAKDTSGYGHYFYYYMDVWGKGTTVTVSS
VL: DIQMTQSPSSLSASIGDRVSITCRTSQIINNYLNWYQQKPGKAPKVLIYSASSLQSGVPSRFSGSGSGTDFTLTINSLQPEDFATYYCQQSYNFPITFGQGTRLELK
notes: VH/VL only
B2: mAb 177 (antibody, V domains shown)
VH: EVQLVESGGGLVQPGMSLRLSCAASGFTFDDYTMHWVRQSPGKGLEWVAGISWNSGTIGYGDSMKGRFTISRDNAKNSLDLQMNSLRVEDTALYYCAKDTSGYGHYYYYFMDVWGKGTTVTVSS
VL: B1 VL with V46L, I75L, N76S, Y87F
notes: VH/VL only; the printed VL holds a letter U
B3: mAb 179 (antibody, V domains shown)
VH: EVQLVESGGGLVQPGRSLRLSCAASGFTFDDYTMHWVRQTPGKGLEWVSDISWNSGSIGYADSVKGRFTISRDNAKNTLYLQMNSLRAEDTALYYCVKDSSGYGHYLYYYMDVWGKGTTVTVSS
VL: DIQMTQSPSSLSASVGDRVTITCRASQSIRNYLNWYQQSPGRAPKLLIFSASSLQSGVPSRFSGSGSGTDFTLTISSLQPEDFVTYYCQQRYSTPITFGQGTRLEIK
notes: VH/VL only
B4: mAb 171 (antibody, V domains shown)
VH: EVQLVESGGGLVQPGRSLRLSCAASGFTFADYTMHWVRQAPGQGLEWVSGISWNSGSIDYADSVKGRFIISRDNAKKTLYLQMNSLRAEDTALYYCAKDSSGYGHYYFYYLDVWGKGTTVTVSS
VL: EIVMTQSPATLSVSPGERATLSCRASQSVSSNLAWYQQKPGQAPRLLIYSTSTRATGIPARFSGSRSGTEFTLTISSLQSEDSAVYYCQQYNNWPHFGQGTRLEIK
notes: VH/VL only
B5: mAb 178 (antibody, V domains shown)
VH: B3 VH with T40A, S57T, T78S, L107Y, Y108K
VL: DIQMTQSPSSLSASVGDRVTITCRASQSISNYLNWYQQKAGKVPKVLIYGSSSLQSGVPSRFSGSGSGTDFTLTISSLQPEDFASYYCQQTYSSPLTFGGGTKVDFK
notes: VH/VL only
B6: mAb 325 (antibody, V domains shown)
VH: QVQVVQSGAEVKKPGASVKVSCKTSGYTFTDQYIHWVRQAPGQGLEWMGWIYPKSGRTDNAQKFKGRVAMTRDTSINTAYMELSSLRSDDTATYYCARLEELVFDYWGQGTLVTVSS
VL: not shown
B7: mAb 158 (antibody, V domains shown)
VH: B4 VH with A40V, Q43K, I58V, I69T
VL: B4 VL with S26T
B8: mAb 121 (antibody, V domains shown)
VH: B4 VH with A24T, Q43K, I69T, T78S, Y95F
VL: B4 VL with A9G, E17K, A43G, R66G, Q90H
B9: mAb 78 (antibody, V domains shown)
VH: EVQLVESGGGLVQPGGSLRLSCAASGFTFSSYWMSWVRQAPGKGLEWVANIKQDGSEKYYVDSVKGRFTISRDNAKNSLYLQMNSLRAEDTAVYYCARDNSPSFYWYFDLWGRGTLVTVSS
VL: DIQMTQSPSTLSASVGDRVTITCRASQSLSRWLAWYQQKPGKAPKLLIYKASSLESGVPSRFSGSGSGTEFTLTISSLQPDDFATYYCQQYYTYSRTFGQGTKVEIK
B10: mAb 153 (antibody, V domains shown)
VH: QVQLVESGGGVVQPGRSLRLSCAASGFTFSTYGMHWVRQAPGKGLEWVAVIWYDGSHKYYSDSVKGRFTISRDNSKNTLYLQMNSLRVEDTAIYYCARTGITGTTAYFYFDSWGQGTLVTVSS
VL: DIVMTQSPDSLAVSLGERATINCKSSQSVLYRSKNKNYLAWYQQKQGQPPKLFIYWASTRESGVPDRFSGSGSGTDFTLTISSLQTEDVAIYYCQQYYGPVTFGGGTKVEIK
B11: mAb 69 (antibody, V domains shown)
VH: QMLLVESGGGVVQPGRSLTLSCAASGFTFRSYGMHWVRQAPGRGLEWVAIIWYDGSTEYYADSVKGRFTISRANSKNMLYLQMNSLRAEDTAVYYCAAFDYTNSFDIWGQGTMVTVSS
VL: DIVVTQTPLSSPVTLGQPASISCRSSQRFVHSDGNTYLSWLQQRPGQPPRLLIYKISNRISGVPDRFSGSGAGTDFKLKISRVEAEDVGIYYCMQATQFPYTFGQGTKLEIK
B12: mAb 70 (antibody, V domains shown)
VH: QGQLVESGGGVVQPGRSLRLSCEASGFTFRSYGMHWVRQPPGKGLEWVAIIWYDGGKKYYGDSVKGRFTISRDNPKNTLYLQMNSLRPEDTAVYYCMAYDYSNGFDIWGQGTMVTVSS
VL: B11 VL with V4M, R28S, N35S, I60F, S70R, K77T, A96N
B13: mAb 143 (antibody, V domains shown)
VH: QVQLMQSGSELEKPGASVKVSCKASGYTFTSFAINWVRQAPGQGLEWMGWINTITGNPSYAQGFTGRFVFSLDTSVTTAFLQINSLKTEDTAVYYCARYVTSSGKFDYWGQGTLVTVSS
VL: DIQMTQSPSSVSASVGDRVTITCRASRGISRWLDWYQQKPGKAPKLLIYAASNLQGGVPSRFSGSGSGTDFTLTIRSLQPEDFAIYYCQQAKTFPFTFGPGTKVDIK
B14: mAb 180 (antibody, V domains shown)
VH: B3 VH with Q3N, T40V, D50N, I58L, N77D, T78S, A88V, V97A, L107N, Y108S
VL: B3 VL with S39K, R42K, L46V, F49Y, V84A, T85S, Y86F, R91T
notes: VH/VL only

Biological target: T1, human CD3 expressed on cells (Jurkat cells; human primary T cells) (human, UniProt P07766 23-207; P04234 22-171; P09693 23-182)
T1 construct: whole, on cells
T1 sequence (P07766 23-207, chain 1 of 3): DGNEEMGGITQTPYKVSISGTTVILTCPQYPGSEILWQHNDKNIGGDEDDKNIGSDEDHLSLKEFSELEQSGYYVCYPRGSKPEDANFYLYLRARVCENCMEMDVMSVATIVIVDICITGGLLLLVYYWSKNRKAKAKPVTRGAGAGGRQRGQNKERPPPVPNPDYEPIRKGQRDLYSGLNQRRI
T1 sequence (P04234 22-171, chain 2 of 3): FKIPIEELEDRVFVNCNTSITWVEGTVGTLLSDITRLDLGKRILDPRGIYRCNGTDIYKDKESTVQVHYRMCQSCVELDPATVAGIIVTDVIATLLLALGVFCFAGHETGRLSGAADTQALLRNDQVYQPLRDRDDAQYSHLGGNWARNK
T1 sequence (P09693 23-182, chain 3 of 3): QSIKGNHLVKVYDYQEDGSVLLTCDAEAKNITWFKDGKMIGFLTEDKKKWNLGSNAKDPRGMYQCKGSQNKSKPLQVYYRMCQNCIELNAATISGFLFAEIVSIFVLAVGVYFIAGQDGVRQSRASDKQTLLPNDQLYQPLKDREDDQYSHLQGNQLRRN
Test: flow cytometry, 25 nM, human primary T cells
In short: (§1)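 Binding reported as fold over isotype: median fluorescence intensity divided by isotype control, with ≥10 scored positive. Cells were exposed to 25 nM antibody in PBS/2% FBS, 30 min, 4 °C, before flow cytometric read-out.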

Binder	Binding (FOI)
B1	147
B2	146
B3	177
B4	165
B5	172

Biological target: T2, cynomolgus monkey CD3 (cynomolgus monkey, UniProt Q95LI5 22-198; Q95LI8 22-171; Q95LI7 23-181)
T2 construct: whole, on cells; CD3 on purified cynomolgus monkey CD3 pan T cells; also called cyno CD3; CD3 on cyno primary T cells
T2 sequence (Q95LI5 22-198, chain 1 of 3): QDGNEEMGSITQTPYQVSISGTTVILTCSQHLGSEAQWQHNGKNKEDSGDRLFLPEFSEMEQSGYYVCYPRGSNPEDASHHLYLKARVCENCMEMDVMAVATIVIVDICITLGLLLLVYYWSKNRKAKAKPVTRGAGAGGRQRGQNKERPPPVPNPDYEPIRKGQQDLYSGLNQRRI
T2 sequence (Q95LI8 22-171, chain 2 of 3): as the sequence (P04234 22-171, chain 2 of 3) above, with I5V, N15K, I20V, S32T, D33N, I34N, T64A, S74N, V83L, H141R counted along it
T2 sequence (Q95LI7 23-181, chain 3 of 3): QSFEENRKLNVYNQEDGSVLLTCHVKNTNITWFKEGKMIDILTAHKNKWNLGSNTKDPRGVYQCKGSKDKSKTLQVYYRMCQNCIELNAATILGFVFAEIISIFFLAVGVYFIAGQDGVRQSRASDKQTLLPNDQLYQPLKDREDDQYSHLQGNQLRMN
Test: flow cytometry, cyno primary T cells
In short: as §1

Binder	binding result
B6	no binding (tested: FOI ≥10 = positive; 25 nM)

Biological target: T3, cynomolgus monkey CD3 expressed on primary T cells (cynomolgus monkey, UniProt Q95LI5 22-198; Q95LI8 22-171; Q95LI7 23-181)
T3 construct: whole, on cells; CD3 complex on purified cynomolgus monkey T cells; also called cyno CD3
T3 sequence (Q95LI5 22-198, chain 1 of 3): as the sequence (Q95LI5 22-198, chain 1 of 3) above
T3 sequence (Q95LI8 22-171, chain 2 of 3): as the sequence (P04234 22-171, chain 2 of 3) above, with I5V, N15K, I20V, S32T, D33N, I34N, T64A, S74N, V83L, H141R counted along it
T3 sequence (Q95LI7 23-181, chain 3 of 3): as the sequence (Q95LI7 23-181, chain 3 of 3) above
Test: flow cytometry, 25 nM
In short: as §1

Binder	Cyno primary T Cell Binding (FOI)
B7	10.9
B8	12.2
B9	41.6
B10	26.1
B11	245
B12	238

Biological target: T4, human CD3 expressed on cells (human, UniProt P07766 23-207; P04234 22-171; P09693 23-182)
T4 construct: whole, on cells; CD3 complex on Jurkat cells and on human primary T cells
T4 sequence (P07766 23-207, chain 1 of 3): as the sequence (P07766 23-207, chain 1 of 3) above
T4 sequence (P04234 22-171, chain 2 of 3): as the sequence (P04234 22-171, chain 2 of 3) above
T4 sequence (P09693 23-182, chain 3 of 3): as the sequence (P09693 23-182, chain 3 of 3) above
Test: flow cytometry, 25 nM
In short: as §1

Binder	Jurkat Cell Binding (FOI)	Human primary T Cell Binding (FOI)
B13	15.5	–
B7	117	164
B8	101	101
B9	104	116
B10	98.5	262
B11	145	123
B12	140	131

Biological target: T5, cynomolgus monkey CD3 expressed on cyno primary T cells (cynomolgus monkey, UniProt Q95LI5 22-198; Q95LI8 22-171; Q95LI7 23-181)
T5 construct: whole, on cells; CD3 complex on purified cynomolgus monkey CD3 pan T cells; also called cyno CD3
T5 sequence (Q95LI5 22-198, chain 1 of 3): as the sequence (Q95LI5 22-198, chain 1 of 3) above
T5 sequence (Q95LI8 22-171, chain 2 of 3): as the sequence (P04234 22-171, chain 2 of 3) above, with I5V, N15K, I20V, S32T, D33N, I34N, T64A, S74N, V83L, H141R counted along it
T5 sequence (Q95LI7 23-181, chain 3 of 3): as the sequence (Q95LI7 23-181, chain 3 of 3) above
Test: flow cytometry, 25 nM, cyno primary T cells
In short: as §1

Binder	Binding (FOI)
B1	34
B2	45.1
B3	54.2
B4	20.1
B5	158
B14	90.2

Biological target: T3, cynomolgus monkey CD3 expressed on …
Test: flow cytometry, 25 nM, cyno primary T cells
In short: as §1

Binder	binding result
B13	no binding (tested: FOI >=10 = positive)

Biological target: T6, human CD3 (human, UniProt P07766 23-207; P04234 22-171; P09693 23-182)
T6 construct: whole, on cells; also called CD3 on Jurkat cells; CD3 on human primary T cells
T6 sequence (P07766 23-207, chain 1 of 3): as the sequence (P07766 23-207, chain 1 of 3) above
T6 sequence (P04234 22-171, chain 2 of 3): as the sequence (P04234 22-171, chain 2 of 3) above
T6 sequence (P09693 23-182, chain 3 of 3): as the sequence (P09693 23-182, chain 3 of 3) above
Test: flow cytometry, Jurkat cells
In short: as §1

Binder	binding result
B6	no binding (tested: FOI ≥10 = positive; 25 nM)

Biological target: T4, human CD3 expressed on cells
Test: flow cytometry, human primary T cells (Jurkat cells in c2 gave 15.495, CD3 KO Jurkat cells in c3 gave 38.63)
Experimental: Purified antibodies were confirmed to bind CD3 expressed on cells using the CytoFLEX S or LX flow cytometers (Beckman Coulter). Antibodies were diluted to 25 nM in FACS buffer (PBS+2% FBS) and were incubated with CD3-expressing cells for 30 minutes at 4° C. […] The median fluorescence intensity of the binding signal for each antibody was normalized to the isotype control to obtain a fold over isotype value. An antibody with a fold over isotype (FOI) of ≥10 was considered to be positive for binding.

Binder	binding result
B13	no binding (tested: FOI >=10 = positive; 25 nM)

Biological target: T1, human CD3 expressed on cells (Jurkat …)
Test: flow cytometry, 25 nM, Jurkat cells
In short: as §1

Binder	Binding (FOI)
B1	114
B2	121
B3	129
B4	108
B5	128
